Experimental data: patent US20230265183A1 (MABWELL SHANGHAI BIOSCIENCE, published 2023)

T1: Cyno Nectin4 (Cyno, UniProt Q96NY8 32-510 (human entry))
T1 construct: Expressed on HEK293 cells (HEK-cynoNectin4)
T1 chain: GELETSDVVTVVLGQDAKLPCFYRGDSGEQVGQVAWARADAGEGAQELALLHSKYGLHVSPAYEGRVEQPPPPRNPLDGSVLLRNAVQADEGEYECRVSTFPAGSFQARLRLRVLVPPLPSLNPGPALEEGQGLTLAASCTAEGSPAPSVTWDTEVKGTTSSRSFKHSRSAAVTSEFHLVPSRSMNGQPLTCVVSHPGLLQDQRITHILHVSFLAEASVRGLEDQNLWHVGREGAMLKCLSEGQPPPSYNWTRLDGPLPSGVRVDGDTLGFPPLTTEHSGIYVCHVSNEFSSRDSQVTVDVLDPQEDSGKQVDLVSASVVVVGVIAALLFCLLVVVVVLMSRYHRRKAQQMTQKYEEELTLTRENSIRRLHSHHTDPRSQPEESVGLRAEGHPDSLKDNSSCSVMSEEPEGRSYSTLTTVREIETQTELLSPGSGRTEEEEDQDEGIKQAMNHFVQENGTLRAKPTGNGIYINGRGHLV

T2: human Nectin-4 (human, UniProt Q96NY8 32-510)
T2 construct: whole, on cells; Cell-surface target of the FACS, endocytosis and proliferation assays (CHO-huNectin4 S8 cells, BT474 cells); the assay field says which cells; also called huNectin4; PVRL4
T2 sequence (looked up): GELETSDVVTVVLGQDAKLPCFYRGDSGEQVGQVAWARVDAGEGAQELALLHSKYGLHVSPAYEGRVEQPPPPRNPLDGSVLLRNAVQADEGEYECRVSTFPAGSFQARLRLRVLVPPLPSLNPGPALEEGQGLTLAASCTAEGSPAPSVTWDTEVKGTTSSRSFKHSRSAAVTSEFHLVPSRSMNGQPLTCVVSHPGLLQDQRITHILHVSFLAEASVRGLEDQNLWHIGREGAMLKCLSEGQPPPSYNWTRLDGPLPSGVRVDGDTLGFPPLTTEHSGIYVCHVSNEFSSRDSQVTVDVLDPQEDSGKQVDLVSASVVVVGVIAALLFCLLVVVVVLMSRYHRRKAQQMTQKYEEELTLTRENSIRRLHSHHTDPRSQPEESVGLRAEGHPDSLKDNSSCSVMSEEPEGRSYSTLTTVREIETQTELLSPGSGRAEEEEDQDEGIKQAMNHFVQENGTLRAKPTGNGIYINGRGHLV

T3: human Nectin-4(C-6His), Novoprotein Cat# CJ19 (human, UniProt Q96NY8 32-349)
T3 construct: Bought protein; also called recombinant human Nectin4 protein; antigen Nectin-4
T3 sequence: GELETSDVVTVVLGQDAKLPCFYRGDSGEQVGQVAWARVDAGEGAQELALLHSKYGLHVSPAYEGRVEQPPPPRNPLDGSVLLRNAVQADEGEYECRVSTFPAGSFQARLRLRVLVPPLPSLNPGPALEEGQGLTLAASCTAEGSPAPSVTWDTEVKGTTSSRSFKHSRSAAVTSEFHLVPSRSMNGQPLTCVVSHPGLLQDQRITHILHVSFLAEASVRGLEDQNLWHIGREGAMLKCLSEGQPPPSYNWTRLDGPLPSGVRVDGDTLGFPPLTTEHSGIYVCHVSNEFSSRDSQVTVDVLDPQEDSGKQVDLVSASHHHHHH

T4: human Nectin-1(C-6His), Novoprotein Cat# C492 (human, UniProt Q15223 31-334, limits assumed)
T4 sequence: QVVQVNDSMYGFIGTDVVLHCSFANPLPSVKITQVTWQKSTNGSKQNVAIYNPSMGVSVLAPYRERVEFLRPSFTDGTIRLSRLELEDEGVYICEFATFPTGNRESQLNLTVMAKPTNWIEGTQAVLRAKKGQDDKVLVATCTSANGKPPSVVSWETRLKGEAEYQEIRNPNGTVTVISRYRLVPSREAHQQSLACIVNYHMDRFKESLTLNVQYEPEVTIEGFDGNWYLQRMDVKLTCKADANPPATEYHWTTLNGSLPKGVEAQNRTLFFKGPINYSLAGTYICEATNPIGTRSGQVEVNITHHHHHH

T5: human Nectin-2(C-6His), Novoprotein Cat# C440 (human, UniProt Q92692 32-360, limits assumed)
T5 sequence: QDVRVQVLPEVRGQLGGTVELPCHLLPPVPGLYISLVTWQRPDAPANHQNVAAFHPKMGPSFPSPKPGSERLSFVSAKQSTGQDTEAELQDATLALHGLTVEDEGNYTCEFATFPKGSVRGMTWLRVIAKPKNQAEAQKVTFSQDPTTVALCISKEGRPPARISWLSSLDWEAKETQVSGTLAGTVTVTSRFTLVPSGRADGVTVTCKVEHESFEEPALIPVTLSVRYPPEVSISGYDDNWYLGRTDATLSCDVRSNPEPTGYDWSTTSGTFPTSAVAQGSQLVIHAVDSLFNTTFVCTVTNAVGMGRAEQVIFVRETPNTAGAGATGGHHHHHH


Columns and labels:
Cyno Nectin4 = biological target: T1, Cyno Nectin4; assay: FACS on HEK-cynoNectin4 cells
human Nectin-4 = biological target: T2, human Nectin-4; assay: FACS on CHO-huNectin4 S8 cells
[1] = biological target: T3, human Nectin-4(C-6His), Novoprotein …; assay: ELISA, plate coated with 1 µg/ml human Nectin-4(C-6His), HRP-labelled secondary antibody, absorbance at 450 nm
Experimental: (§1) Plates were coated with 1 µg/ml of the antigens and incubated at 4° C. overnight; next, antibodies serially diluted were added into the plates. Finally, the HRP-labeled secondary antibody was added, and absorbance at 450 nm was detected.

[2] = biological target: T4, human Nectin-1(C-6His), Novoprotein …; assay: ELISA, plate coated with 1 µg/ml human Nectin-1(C-6His), absorbance at 450 nm. The text names only a goat anti-rabbit HRP secondary antibody
Experimental: as §1

[3] = biological target: T5, human Nectin-2(C-6His), Novoprotein …; assay: ELISA, plate coated with 1 µg/ml human Nectin-2(C-6His), absorbance at 450 nm. The text names only a goat anti-rabbit HRP secondary antibody
Experimental: as §1

EC50 (Cyno Nectin4)	EC50 (human Nectin-4)	EC50 (read off the curve) [1]	binding result [3]	Binder	binding result [2]
2.42 to 4.97 µg/mL	0.801 µg/mL	~0.09 µg/mL	no binding (tested: 10 µg/ml)	42D20 hz10 (antibody, V domains shown, Humanized) VH: QVQLQESGPGLVKPSETLSLTCTVSGFSLIDYGVSWIRQPPGKGLEWIGVIWGDGKIYYNSVLKSRVTISKDNSKSQVSLKLSSVTAADTAVYYCAKQGGLLFYAMDYWGQGTLVTVSS VL: DIVMTQSPDSLAVSLGERATINCKSSQSLLNSYSQKNYLAWYQQKPGQPPKLLIYFASTRESGVPDRFSGSGSGTDFTLTISSLQAEDVAVYYCQQHYNTPFTFGAGTKLELKR	no binding (tested: about 2.5 µg/ml (last point))
0.948 to 2.07 µg/mL	0.513 µg/mL	~0.1 µg/mL	no binding (tested: 10 µg/ml)	Enfortumab (antibody, human IgG1, kappa, V domains shown, also called control antibody Enfortumab) VH: EVQLVESGGGLVQPGGSLRLSCAASGFTFSSYNMNWVRQAPGKGLEWVSYISSSSSTIYYADSVKGRFTISRDNAKNSLSLQMNSLRDEDTAVYYCARAYYYGMDVWGQGTTVTVSS VL: DIQMTQSPSSVSASVGDRVTITCRASQGISGWLAWYQQKPGKAPKFLIYAASTLQSGVPSRFSGSGSGTDFTLTISSLQPEDFATYYCQQANSFPPTFGGGTKVEIKR	no binding (tested: about 2.5 µg/ml (last point))
